Source: patent US10900903B2, “Protein structure analysis based on red-edge excitation shift (REES) spectroscopy” (UNIVERSITY OF BATH, priority 2016, dated 2021)

Assays:
[1] = High-pressure REES measurements; format: physicochemical; conditions: buffered solution, any pressure
Excerpt: The CSM value is rather larger than reported for the denaturation study above (FIGS. 3A and 3B) and this is due to a different spectral window used to calculate the CSM for the pressure studies. This was necessary due to the optical setup of the pressure cell. […] Fitting the REES data to Eq 4 gives the pressure dependence of A, shown in FIG. 4D as the change in the fraction of A across the pressure range. […] The pressure dependence data can be adequately fit to a simple, phenomenological model that implies a single transition between two states with changing hydrostatic pressure as used previously:
Where Rp=83.13 cm3 mol^−1 bar K^−1 when the pressure, p, is measured in bar, K0 is the equilibrium constant for the change in the relative population of the ith conformational state represented by the magnitude of A from Eq 4, extrapolated to 0 bar and ΔVA is the apparent difference in the volume associated with this equilibrium transition.
The difference in sign is simply attributable to relative change in direction of the specific to signal. What is important is that the magnitude of ΔV is much larger for the REES effect compared to W6 emission. Indeed, this magnitude of pressure dependence is more consistent with global metrics of NEMO conformational change previously measured using the pressure dependence of 8-anilino naphthalene sulfonate (ANS) emission. The REES signal may therefore be reflective of the broader equilibrium of NEMO conformational states at sites distal to W6. […] The key finding from the pressure data in the present context is that the REES effect itself is pressure-dependent with the magnitude of A increasing with pressure.
An ISS high-pressure cell (ISS, Champaign, UL, USA), fitted with a custom fiber optic mounting to the fluorimeter and connected to a circulating water bath for temperature regulation was used to record all high-pressure measurements.
Where fi is the measured fluorescence intensity and λem is the emission wavelength. The importance of using a consistent wavelength range when reporting CSM data is stressed, as the magnitude will be dependent on the wavelength range chosen.

[2] = target: T1, NEMO (Homo sapiens, UniProt Q9Y6K9); assay: REES of NEMO W6 on ligand binding (peptides, poly-ubiquitin); conditions: for R (fit to Eq 1), relative / A (REES magnitude, fit to Eq 2): relative to NEMO alone, binding partners; for A (REES magnitude, fit to Eq 2): peptides 1 mM, poly-ubiquitin 1 μM
T1 construct: Full length human NEMO was expressed and purified essentially as described previously [23]; made in house
Excerpt: Having established that the REES effect, specifically the use of Eq 2, can be used as a proxy for the protein free energy landscape, how the NEMO REES signal varies upon ligand binding is considered. […] The REES data for NEMO ligand bound states are shown in FIGS. 6A and 6B with the solid lines representing the fit to Eq 2. The resulting extracted values of A from Eq 2 are given in Table 1 and also as an inset bar chart in FIG. 6. For clarity, the relative change in R and A compared to NEMO alone is reported, extracted from Eq 1 and 2, respectively.
The IKKβ peptide (termed the NEMO binding domain, NBD) contains two Trp residues and so is not suitable for the present study as the signal from the peptide would confound the analysis of the single NEMO Trp. […] From Table 1 and FIG. 5A there is a significant difference in the magnitude of A depending on the ligand bound form of NEMO. […] If the ligand binding data shown in FIG. 5A is fitted to the simple linear function described by Eq 1 a different trend is found. […] Instead the major difference to is in the curvature of the data and this is captured by the use of Eq 2.
NEMO comprises a specific domain that non-covalently binds poly-ubiquitin. […] Poly-ubiquitin is found as a range of chain-lengths in the cell and evidence has previously been provided from ANS binding studies that NEMO undergoes different conformational change depending on the chain-length of non-covalently bound poly-ubiquitin [23]. The REES effect on NEMO W6 is explored in the presence of both short (4-mer; Ub4) and long (10-mer; Ub10) poly-ubiquitin chains, as shown in FIG. 6B. From the resulting values of A, given in Table 1, Ub4 binding gives a decrease in A (A=0.77±0.05), but Ub10 gives an increase (A=1.23±0.1). […] The absolute magnitude of the REES difference is small.
Full length human NEMO was expressed and purified essentially as described previously. Purified protein was dialysed extensively into a buffer comprising 50 mM Tris-Cl pH 8.0, 50 mM NaCl and 5 mM DTT. All measurements were made in this buffer unless otherwise stated. IKK-β and IκBα peptides were commercially synthesised by Genscript, having a purity of >98% and are of the sequence […] and […], respectively. The IKK-β peptide was modified such that the two native Trp residues were replaced with Phe residues. M1-linked poly-ubiquitin was purchased from Viva Bioscience. Staphylococcus aureus immune modulator protein fragment Sbi-III-IV K173A was expressed and purified essentially as described previously. Protein concentration used was between 1 and 5 μM. Peptide concentrations were 1 mM and poly-ubiquitin concentrations were 1 μM.
All fluorescence measurements were performed using a Perkin Elmer LS50B Luminescence Spectrometer (Perkin Elmer, Waltham, Mass., USA) connected to a circulating water bath for temperature regulation (±1° C.). Samples were incubated for 5 minutes at the given conditions prior to recording measurements. Measurements were performed at 10° C., unless otherwise stated. Excitation and emission slit widths were 5 nm except for pressure experiments where they were 10 nm. The larger slit width was required due to the optical setup of the pressure cell to ensure a […] signal-to-noise for the W6 emission signal. For NEMO red edge excitation scans, tryptophan emission was monitored from 315 to 550 nm. […] For red edge excitation scans, tyrosine emission was monitored from 294 to 400 nm, with the excitation wavelength set at 274 nm. […]

[3] = REES of NEMO W6 Trp emission: native, denatured, crowded; format: physicochemical; conditions: for A (REES magnitude, fit to Eq 2) / R (fit to Eq 1), relative: relative to NEMO alone; for A (REES magnitude, fit to Eq 2) / R (fit to Eq 1), relative / R0: native; for A (REES magnitude, fit to Eq 2): denatured (6M guanidine), crowded (Sbi 20 mg/ml); for R (fit to Eq 1), relative / R0: denatured, crowded; for R0: y-intercept of Eq 2 fit
Experimental: Typically the magnitude of the steady-state REES phenomenon is reported as the simple difference in CSM or ΔλEm^max. From FIG. 1, it is observed that a significant red shift in the emission spectra, with an increase in CSM of 17.7 nm and an increase in ΔλEm^max of 15 nm from λex 292-310 nm. Essentially the data are treated by the linear function: CSM=Rλex+CSM0 Eq 1.
Where R is the REES magnitude expressed as the change in CSM per nm of the excitation wavelength, λex.
The REES data in FIG. 2 can be best represented by a Gaussian probability distribution of the form:
Where A is the area, w is the full width at half-maximal (fwhm), m is the mid-point and R0 is the y-intercept and m=λREES^max, where λREES^max is the excitation wavelength that gives the largest change in the emission peak wavelength. The data in FIG. 2 are fit to Eq 2 and illustrate the low energy excitation at the red edge of the protein absorption spectrum. The fit of Eq 2 to the experimental data is excellent and captures the expected relationship described above.
In this case, the solvent relaxation will be very rapid and no REES effect observed, effectively because there is one discrete solvation state (fully solvated). NEMO is incubated in 6M guanidine to denature the protein and the corresponding change in the center of spectral mass (CSM) versus λex is shown in FIG. 3. The use of CSM is favoured instead of the magnitude of ΔλEm^max as this metric gives a more robust REES signal and the magnitude of may be highly error prone. However the results using ΔλEm^max are essentially the same. A decrease and red-shift in Trp emission is typically grossly correlated with denaturation of proteins. […] Note that this is not the REES effect but reflective of the solvent exposure of NEMO W6 on denaturation. […] Fitting to Eq 2 also gives a large decrease in the REES effect, A=0.37±0.4. The relative change in the REES effect is similar using either approach and this indicates strongly that a fitting approach using Eq 2 is robust.
Macromolecular crowding is a key feature of the intracellular milieu arising from the very high concentrations of other species in the cytosol. Crowding reduces the available solvent for other molecules in solution through the excluded volume effect, which effectively increase the concentration of, for example, protein and restricts the accessible conformational states through hard-core repulsions between the crowding agent and the protein. Macromolecular crowding can alter protein conformation, typically inducing folding and stabilization. Crowding therefore potentially provides a means to explore the contrasting physical effect of denaturation on the REES effect, where the protein is more folded/stabilized. A protein has been used as the crowding agent, Sbi (reported above), instead of a synthetic crowding agent since protein is much more consistent with the intracellular environment. […] Incubating NEMO with a high concentration of Sbi (20 mg/ml) gives a dramatic change to the both the absolute Trp emission and also the REES effect as shown in FIG. 3. […] Intriguingly, the REES effect is much larger in the crowded environment giving a relative increase in A of 2.24±0.51. […] This is consistent with the putative molecular model of NEMO activity that is based on allosterically regulated NEMO conformational change. Below, the potential mechanistic role of an increased number of available conformational states with respect to ligand interactions is described.
Full length human NEMO was expressed and purified essentially as described previously. Purified protein was dialysed extensively into a buffer comprising 50 mM Tris-Cl pH 8.0, 50 mM NaCl and 5 mM DTT. All measurements were made in this buffer unless otherwise stated. IKK-β and IκBα peptides were commercially synthesised by Genscript, having a purity of >98% and are of the sequence […] and […], respectively. […]

T1 sequence (Q9Y6K9 whole entry): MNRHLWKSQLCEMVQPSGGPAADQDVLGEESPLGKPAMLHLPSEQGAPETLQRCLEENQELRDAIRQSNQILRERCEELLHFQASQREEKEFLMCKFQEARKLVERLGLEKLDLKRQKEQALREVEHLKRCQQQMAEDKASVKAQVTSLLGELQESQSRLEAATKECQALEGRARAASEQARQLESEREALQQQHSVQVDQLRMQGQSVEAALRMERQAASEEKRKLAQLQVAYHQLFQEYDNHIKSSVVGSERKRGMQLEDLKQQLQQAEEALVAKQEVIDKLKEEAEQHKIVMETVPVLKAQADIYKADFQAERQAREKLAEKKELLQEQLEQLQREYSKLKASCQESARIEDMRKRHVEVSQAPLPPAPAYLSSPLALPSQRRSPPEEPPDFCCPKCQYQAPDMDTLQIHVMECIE

Row | Molecule | R (fit to Eq 1), relative [2] | A (REES magnitude, fit to Eq 2) [2] | A (REES magnitude, fit to Eq 2) [3] | R (fit to Eq 1), relative [3] | R0 [3] | also measured
1 | N[C@@H](Cc1c[nH]c2ccccc12)C(=O)O [free Trp, tryptophan, reference compound] | – | – | – | – | – | REES effect under pressure (in words) [1]: No REES effect is observed
2 | IκBα peptide: peptide mimic of IκBα, sequence DDRHDSGLDSMKD | 1.35±0.1 | 0.85±0.04 | – | – | – | –
3 | NBD-Phe: IKK-β peptide (NEMO binding domain), two Trp replaced with Phe, sequence TALDFSFLQTE | 0.98±0.1 | 1.33±0.3 | – | – | – | decrease in W6 emission on binding [2]: ~50%
4 | NEMO + Sbi: NEMO incubated with a high concentration of Sbi (20 mg/ml) as crowding agent | – | – | 2.24±0.51 | 1.07 ± 0.12 | 360.5±0.45 nm | Trp emission intensity compared to NEMO in the absence of Sbi ([3]; Sbi 20 mg/ml): ~1.4 times
5 | NEMOdenat: NEMO incubated in 6M guanidine to denature the protein | – | – | 0.37 ± 0.4 | 0.21 ± 0.01 | 375.0 ± 0.5 nm | REES effect (in words) [3]: dramatically reduced REES effect; R (fit to Eq 1), change in CSM per nm of λex ([3]; absolute value): 0.22±0.02; A (REES magnitude, fit to Eq 2) ([3]; listed as Denatured NEMO): 0.37±0.4; R (fit to Eq 1), relative ([3]; listed as Denatured NEMO): 0.23±0.1; R0 ([3]; listed as Denatured NEMO): 375±0.5 nm; increase in CSM (red shift) ([3]; λex 292-310 nm): 4 nm
